Blank lines part the entries; values can stand above or below the binder they belong to. Numbered stars: 1 amine (or outer) side, 2 acyl side, 3 side chain; on linkers, the order of the positions; unused ones are H or OH. Side chains are listed from the residue outwards. Ends that are not written are not given here. * marks the point of attachment. γGlu = O=C(O)[C@H](CCC(=O)[*:2])N[*:1]; Palmitoyl = CCCCCCCCCCCCCCCC(=O)*
Legend:
Assay in all cases: cell-based or functional assay
[1] = target: human glucagon receptor (human, UniProt P47871 26-477)
[2] = target: T1, human glucose-dependent insulinotropic peptide (gastric inhibitory polypeptide) receptor (human) (UniProt P48546)
T1 sequence (looked up): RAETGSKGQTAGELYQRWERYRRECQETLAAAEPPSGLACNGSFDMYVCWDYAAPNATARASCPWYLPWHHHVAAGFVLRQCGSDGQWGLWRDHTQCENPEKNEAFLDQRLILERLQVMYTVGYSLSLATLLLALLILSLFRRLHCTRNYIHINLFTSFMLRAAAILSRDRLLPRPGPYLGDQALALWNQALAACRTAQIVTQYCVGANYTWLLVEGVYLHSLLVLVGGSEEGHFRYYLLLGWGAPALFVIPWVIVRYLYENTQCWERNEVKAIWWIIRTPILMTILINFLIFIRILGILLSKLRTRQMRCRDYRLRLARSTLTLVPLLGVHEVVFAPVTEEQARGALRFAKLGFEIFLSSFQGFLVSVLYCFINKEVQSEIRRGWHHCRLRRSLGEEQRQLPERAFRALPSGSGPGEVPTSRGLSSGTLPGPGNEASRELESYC

[3] = target: human GLP-1 receptor (human, UniProt P43220 24-463)
Sequence of human GLP-1 receptor (P43220 24-463): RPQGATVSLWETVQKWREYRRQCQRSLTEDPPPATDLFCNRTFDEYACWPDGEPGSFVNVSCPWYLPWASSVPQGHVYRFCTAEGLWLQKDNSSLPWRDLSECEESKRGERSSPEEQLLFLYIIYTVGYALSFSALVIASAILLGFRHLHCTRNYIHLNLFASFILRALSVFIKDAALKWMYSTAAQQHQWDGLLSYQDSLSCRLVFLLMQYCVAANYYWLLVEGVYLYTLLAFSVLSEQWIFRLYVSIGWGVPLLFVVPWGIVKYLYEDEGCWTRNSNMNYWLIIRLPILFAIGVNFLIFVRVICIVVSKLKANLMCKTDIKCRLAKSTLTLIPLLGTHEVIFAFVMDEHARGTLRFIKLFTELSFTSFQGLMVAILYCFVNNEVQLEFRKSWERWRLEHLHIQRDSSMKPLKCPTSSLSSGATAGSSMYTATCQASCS

Sequence of human glucagon receptor (P47871 26-477): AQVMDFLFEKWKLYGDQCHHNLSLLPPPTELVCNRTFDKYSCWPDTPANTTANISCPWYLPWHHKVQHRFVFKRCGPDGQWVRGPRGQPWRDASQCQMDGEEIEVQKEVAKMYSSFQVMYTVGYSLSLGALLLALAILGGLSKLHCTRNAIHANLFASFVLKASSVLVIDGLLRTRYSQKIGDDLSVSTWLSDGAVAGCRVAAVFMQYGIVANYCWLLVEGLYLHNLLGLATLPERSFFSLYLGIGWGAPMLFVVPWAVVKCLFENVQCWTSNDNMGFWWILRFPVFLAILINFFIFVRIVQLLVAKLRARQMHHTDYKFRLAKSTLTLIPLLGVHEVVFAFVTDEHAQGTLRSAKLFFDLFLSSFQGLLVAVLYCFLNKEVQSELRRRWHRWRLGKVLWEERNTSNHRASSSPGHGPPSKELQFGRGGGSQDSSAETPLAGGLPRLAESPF

B1: g728 (peptide)
peptide: HSQGTFTSDYSK([γGlu-Palmitoyl])YLDSERARDFVAWLVAGG-NH2
modifications: N-terminus assumed
SMILES: CCCCCCCCCCCCCCCC(=O)N[C@@H](CCC(=O)NCCCC[C@H](NC(=O)[C@H](CO)NC(=O)[C@H](Cc1ccc(O)cc1)NC(=O)[C@H](CC(=O)O)NC(=O)[C@H](CO)NC(=O)[C@@H](NC(=O)[C@H](Cc1ccccc1)NC(=O)[C@@H](NC(=O)CNC(=O)[C@H](CCC(N)=O)NC(=O)[C@H](CO)NC(=O)[C@@H](N)Cc1c[nH]cn1)[C@@H](C)O)[C@@H](C)O)C(=O)N[C@@H](Cc1ccc(O)cc1)C(=O)N[C@@H](CC(C)C)C(=O)N[C@@H](CC(=O)O)C(=O)N[C@@H](CO)C(=O)N[C@@H](CCC(=O)O)C(=O)N[C@@H](CCCNC(=N)N)C(=O)N[C@@H](C)C(=O)N[C@@H](CCCNC(=N)N)C(=O)N[C@@H](CC(=O)O)C(=O)N[C@@H](Cc1ccccc1)C(=O)N[C@H](C(=O)N[C@@H](C)C(=O)N[C@@H](Cc1c[nH]c2ccccc12)C(=O)N[C@@H](CC(C)C)C(=O)N[C@H](C(=O)N[C@@H](C)C(=O)NCC(=O)NCC(N)=O)C(C)C)C(C)C)C(=O)O
cAMP EC50 (assay 1) [1]: 2.44 nM
cAMP EC50 (assay 1) [2]: 395 nM
cAMP EC50 (assay 1) [3]: 0.169 nM

B3: g716 (peptide)
peptide: HSQGTFTSDYK([γGlu-Palmitoyl])KYLDSRRAQDFVQWLVAGG-NH2
modifications: N-terminus assumed
SMILES: CCCCCCCCCCCCCCCC(=O)N[C@@H](CCC(=O)NCCCC[C@H](NC(=O)[C@H](Cc1ccc(O)cc1)NC(=O)[C@H](CC(=O)O)NC(=O)[C@H](CO)NC(=O)[C@@H](NC(=O)[C@H](Cc1ccccc1)NC(=O)[C@@H](NC(=O)CNC(=O)[C@H](CCC(N)=O)NC(=O)[C@H](CO)NC(=O)[C@@H](N)Cc1c[nH]cn1)[C@@H](C)O)[C@@H](C)O)C(=O)N[C@@H](CCCCN)C(=O)N[C@@H](Cc1ccc(O)cc1)C(=O)N[C@@H](CC(C)C)C(=O)N[C@@H](CC(=O)O)C(=O)N[C@@H](CO)C(=O)N[C@@H](CCCNC(=N)N)C(=O)N[C@@H](CCCNC(=N)N)C(=O)N[C@@H](C)C(=O)N[C@@H](CCC(N)=O)C(=O)N[C@@H](CC(=O)O)C(=O)N[C@@H](Cc1ccccc1)C(=O)N[C@H](C(=O)N[C@@H](CCC(N)=O)C(=O)N[C@@H](Cc1c[nH]c2ccccc12)C(=O)N[C@@H](CC(C)C)C(=O)N[C@H](C(=O)N[C@@H](C)C(=O)NCC(=O)NCC(N)=O)C(C)C)C(C)C)C(=O)O
cAMP EC50 (assay 1) [1]: 2.46 nM
cAMP EC50 (assay 1) [2]: 11.8 nM
cAMP EC50 (assay 1) [3]: 12.9 nM

B5: g715 (peptide)
peptide: HSQGTFTSDK([γGlu-Palmitoyl])SKYLDSRRAQDFVQWLVAGG-NH2
modifications: N-terminus assumed
SMILES: CCCCCCCCCCCCCCCC(=O)N[C@@H](CCC(=O)NCCCC[C@H](NC(=O)[C@H](CC(=O)O)NC(=O)[C@H](CO)NC(=O)[C@@H](NC(=O)[C@H](Cc1ccccc1)NC(=O)[C@@H](NC(=O)CNC(=O)[C@H](CCC(N)=O)NC(=O)[C@H](CO)NC(=O)[C@@H](N)Cc1c[nH]cn1)[C@@H](C)O)[C@@H](C)O)C(=O)N[C@@H](CO)C(=O)N[C@@H](CCCCN)C(=O)N[C@@H](Cc1ccc(O)cc1)C(=O)N[C@@H](CC(C)C)C(=O)N[C@@H](CC(=O)O)C(=O)N[C@@H](CO)C(=O)N[C@@H](CCCNC(=N)N)C(=O)N[C@@H](CCCNC(=N)N)C(=O)N[C@@H](C)C(=O)N[C@@H](CCC(N)=O)C(=O)N[C@@H](CC(=O)O)C(=O)N[C@@H](Cc1ccccc1)C(=O)N[C@H](C(=O)N[C@@H](CCC(N)=O)C(=O)N[C@@H](Cc1c[nH]c2ccccc12)C(=O)N[C@@H](CC(C)C)C(=O)N[C@H](C(=O)N[C@@H](C)C(=O)NCC(=O)NCC(N)=O)C(C)C)C(C)C)C(=O)O
cAMP EC50 (assay 1) [1]: 0.00253 nM
cAMP EC50 (assay 1) [2]: 0.998 nM
cAMP EC50 (assay 1) [3]: 0.0204 nM

Now from value to binder:

cAMP EC50 (assay 1) [1]: 1.81 nM
cAMP EC50 (assay 1) [2]: 91.2 nM
cAMP EC50 (assay 1) [3]: 0.0964 nM
B2: g802 (peptide)
peptide: HSQGTFTSDYSEK([γGlu-Palmitoyl])LDSERARDFVAWLVAGG-NH2
modifications: N-terminus assumed
SMILES: CCCCCCCCCCCCCCCC(=O)N[C@@H](CCC(=O)NCCCC[C@H](NC(=O)[C@H](CCC(=O)O)NC(=O)[C@H](CO)NC(=O)[C@H](Cc1ccc(O)cc1)NC(=O)[C@H](CC(=O)O)NC(=O)[C@H](CO)NC(=O)[C@@H](NC(=O)[C@H](Cc1ccccc1)NC(=O)[C@@H](NC(=O)CNC(=O)[C@H](CCC(N)=O)NC(=O)[C@H](CO)NC(=O)[C@@H](N)Cc1c[nH]cn1)[C@@H](C)O)[C@@H](C)O)C(=O)N[C@@H](CC(C)C)C(=O)N[C@@H](CC(=O)O)C(=O)N[C@@H](CO)C(=O)N[C@@H](CCC(=O)O)C(=O)N[C@@H](CCCNC(=N)N)C(=O)N[C@@H](C)C(=O)N[C@@H](CCCNC(=N)N)C(=O)N[C@@H](CC(=O)O)C(=O)N[C@@H](Cc1ccccc1)C(=O)N[C@H](C(=O)N[C@@H](C)C(=O)N[C@@H](Cc1c[nH]c2ccccc12)C(=O)N[C@@H](CC(C)C)C(=O)N[C@H](C(=O)N[C@@H](C)C(=O)NCC(=O)NCC(N)=O)C(C)C)C(C)C)C(=O)O

cAMP EC50 (assay 1) [1]: 0.0319 nM
cAMP EC50 (assay 1) [2]: 209 nM
cAMP EC50 (assay 1) [3]: 0.0729 nM
B4: g729 (peptide)
peptide: HSQGTFTSDYSKK([γGlu-Palmitoyl])LDSERAQDFVQWLVAGG-NH2
modifications: N-terminus assumed
SMILES: CCCCCCCCCCCCCCCC(=O)N[C@@H](CCC(=O)NCCCC[C@H](NC(=O)[C@H](CCCCN)NC(=O)[C@H](CO)NC(=O)[C@H](Cc1ccc(O)cc1)NC(=O)[C@H](CC(=O)O)NC(=O)[C@H](CO)NC(=O)[C@@H](NC(=O)[C@H](Cc1ccccc1)NC(=O)[C@@H](NC(=O)CNC(=O)[C@H](CCC(N)=O)NC(=O)[C@H](CO)NC(=O)[C@@H](N)Cc1c[nH]cn1)[C@@H](C)O)[C@@H](C)O)C(=O)N[C@@H](CC(C)C)C(=O)N[C@@H](CC(=O)O)C(=O)N[C@@H](CO)C(=O)N[C@@H](CCC(=O)O)C(=O)N[C@@H](CCCNC(=N)N)C(=O)N[C@@H](C)C(=O)N[C@@H](CCC(N)=O)C(=O)N[C@@H](CC(=O)O)C(=O)N[C@@H](Cc1ccccc1)C(=O)N[C@H](C(=O)N[C@@H](CCC(N)=O)C(=O)N[C@@H](Cc1c[nH]c2ccccc12)C(=O)N[C@@H](CC(C)C)C(=O)N[C@H](C(=O)N[C@@H](C)C(=O)NCC(=O)NCC(N)=O)C(C)C)C(C)C)C(=O)O

cAMP EC50 (assay 1) [1]: 0.0117 nM
cAMP EC50 (assay 1) [2]: 71.1 nM
cAMP EC50 (assay 1) [3]: 0.0339 nM
B6: g820 (peptide)
peptide: HSQGTFTSDYSRK([γGlu-Palmitoyl])LDSERARDFVAWLVAGG-NH2
modifications: N-terminus assumed
SMILES: CCCCCCCCCCCCCCCC(=O)N[C@@H](CCC(=O)NCCCC[C@H](NC(=O)[C@H](CCCNC(=N)N)NC(=O)[C@H](CO)NC(=O)[C@H](Cc1ccc(O)cc1)NC(=O)[C@H](CC(=O)O)NC(=O)[C@H](CO)NC(=O)[C@@H](NC(=O)[C@H](Cc1ccccc1)NC(=O)[C@@H](NC(=O)CNC(=O)[C@H](CCC(N)=O)NC(=O)[C@H](CO)NC(=O)[C@@H](N)Cc1c[nH]cn1)[C@@H](C)O)[C@@H](C)O)C(=O)N[C@@H](CC(C)C)C(=O)N[C@@H](CC(=O)O)C(=O)N[C@@H](CO)C(=O)N[C@@H](CCC(=O)O)C(=O)N[C@@H](CCCNC(=N)N)C(=O)N[C@@H](C)C(=O)N[C@@H](CCCNC(=N)N)C(=O)N[C@@H](CC(=O)O)C(=O)N[C@@H](Cc1ccccc1)C(=O)N[C@H](C(=O)N[C@@H](C)C(=O)N[C@@H](Cc1c[nH]c2ccccc12)C(=O)N[C@@H](CC(C)C)C(=O)N[C@H](C(=O)N[C@@H](C)C(=O)NCC(=O)NCC(N)=O)C(C)C)C(C)C)C(=O)O

— patent US20190185537A1 (AstraZeneca / MedImmune, published 2019)
